The source of these data is US10876098B2, “Polynucleotide, host cell and a method to recombinantly produce the protein encoded by said polynucleotide having peroxygenative activity” (CONSEJO SUPERIOR DE INVESTIGACIONES CIENTIFICAS (CSIC), priority 2015, dated 2020).

A short description of series [1]: Thermostability assay (T50), culture supernatants, residual activity with ABTS. It is filed as physicochemical. The method, then: An individual S. cerevisiae colony was selected with the corresponding clone (grown in a SC drop-out minimal medium plate: 100 mL of 6.7% yeast nitrogen base, 100 mL of 19.2 g/L uracil-free amino acid supplement, 100 mL of 20% glucose, 1 mL of 25 g/L chloramphenicol and ddH2O up to 1,000 mL) was inoculated in 2 mL of selective minimal medium (as in the SC plate medium, but with 20 g of bacto agar and rafinose instead of galactose) and was incubated for 48 hour at 30° C. and 220 RPM. An aliquot of this culture was taken such that, upon inoculating it in 5 mL of new minimal medium, optical density at 600 nm would have a value of 0.25 (optical density, OD600=0.25). This starter was incubated until completing two full growth cycles (between 6 and 8 hours), at which time 1 mL of cells were taken to inoculate 9 mL of expression medium in a 100 mL flask (OD600=0.1). This culture of each clone was incubated for 72 hours at 25° C. and 220 RPM (at peak UPO activity; OD600=25-30), the cells were separated by centrifugation (10 minutes at 4,500 RPM and 4° C.) and supernatant was filtered (using a glass and nitrocellulose filter with a pore size of 0.45 μm). Appropriate dilutions of the supernatants were prepared so that aliquots of 20 μL would give rise to a linear response in kinetic mode. 50 μL of supernatant were used for each point in a temperature gradient created by means of thermocyclator, from 30 to 80° C. After incubating for 10 minutes, the aliquots were cooled in ice for 10 minute and tempered at room temperature for 5 minutes. […] The thermostability values were calculated in accordance with the ratio between the residual activities incubated at different temperatures and the value of initial activity at room temperature. The value of T50 was determined as the value of the temperature at which the protein loses 50% of it initial activity after incubating for 10 minutes.
An individual S. cerevisiae colony was selected with the corresponding clone (grown on a SC drop-out minimal medium plate: 100 mL of 6.7% yeast nitrogen base, 100 mL of 19.2 g/L uracil-free amino acid supplement, 100 mL of 20% glucose, 1 mL of 25 g/L chloramphenicol and ddH2O up to 1,000 mL), was inoculated in 3 mL of selective minimal medium (like the SC plate medium, but with 20 g of bacto agar and rafinose instead of galactose) and incubated for 48 hours at 30° C. and 220 RPM. […] The thermostability values were calculated in accordance with the ratio between the residual activities incubated at different temperatures and the value of initial activity at room temperature. The value of T50 was determined as as the temperature value at which the protein loses 50% of its initial activity after incubating for […].

Series [2] can be described thus: Isoelectric point by two-dimensional electrophoresis. The format is physicochemical. The protocol:
The analyses were performed using an Autoflex III MALDI-TOF-TOF unit with smartbeam laser (Bruker Daltonics). The samples were evaluated in positive mode. The method was calibrated using BSA with standard, thereby covering a range of 15,000 to 70,000 Da. In order to determine the isoelectric point of the UPO variants, 8 μg of pure enzyme were subjected to two-dimensional electrophoresis. These experiments were carried out at the Proteomic and Genomic Service of the Biological Research Centre (CIB-CSIC, Spain).

Series [3] is described as follows: Optimum pH for ABTS. It is filed as biochemical.
Series [4] can be described thus: Stability at high acetonitrile concentrations. The format is physicochemical. The note with it: 5 hours of incubation, 50% to 100% co-solvent, 20° C.; versus PaDa-I. The method, then: FIG. 2 Biochemical characteristics of the variants of the invention. A) Spectroscopic characteristics of the PaDa-I (thin line) and JaWa (thick line) mutants at rest. AU, arbitrary units. B) Thermostability analysis (T50) of the PaDa-I (black circles) and JaWa (white circles) mutants. The experiments were carried out using culture supernatants and each point represents the average value and standard deviation of three individual experiments. C) Stability of the PaDa-I (black bars) and JaWa (grey bars) mutants at high acetonitrile concentrations. The stabilities were determined after 5 hours of incubation of the enzyme in increasing concentrations of the co-solvent (from 50% to 100%) at 20° C. in 10 mM pH 7.0 potassium phosphate buffer. […] The error bars indicate standard deviations.

Series [5] is described as follows: Propranolol transformation reaction analysed by HPLC-PDA. The format is biochemical. The following applies: absence of ascorbic acid. The protocol: FIG. 13 Chromatogram showing the enzyme reactions.
(§1) The reactions were analysed by means of chromatography in reverse phase (HPLC). The equipment was composed of a tertiary pump (Varian-Agilent Technologies, USA) coupled to an autosampler (Merck Millipore, MA, USA); for the separation, a Zorbax Eclipse plus C18 column (15 cm×4.6 cm) at 40° C. was used and the detection was performed using a photodiode detector (PDA) (Varian, Agilent Technologies, USA). The mobile phase selected was a gradient from 10% methanol and 90% ddH2O (in both cases with 0.1% of acetic acid) up to 90% methanol and 10% ddH2O at a flow rate of 0.8 mL/min. The reaction was quantified at 280 nm (based on HPLC standards). […] The standard deviations were less than 5% in all cases.

The nature of series [6]: Total turnover number (TTN) for synthesis of 5′-hydroxypropranolol from propranolol. It is filed as biochemical. The note with it: 0.03 μM enzyme, propranolol, 2 mM H2O2 added every 10 minutes. The protocol: FIG. 15 Calculation of the total turnover number (TTN) of AaeUPO and SoLo.
as §1

B1: JaWa: PaDa-I variant with added mutations G241D and R257K, SEQ ID NO: 24 (protein)
chain: MKYFPLFPTLVYAVGVVAFPDYASLAGLSQQELDAIIPTLEAREPGLPPGPLENSSAKLVNDEAHPWKPLRPGDIRGPCPGLNTLASHGYLPRNGVATPAQIINAVQEGFNFDNQAAIFATYAAHLVDGNLITDLLSIGRKTRLTGPDPPPPASVGGLNEHGTFEGDASMTRGDAFFGNNHDFNETLFEQLVDYSNRFGGGKYNLTVAGELRFKRIQDSIATNPNFSFVDFRFFTAYGETTFPANLFVDGRRDDGQLDMDAARSFFQFSRMPDDFFRAPSPRSDTGVEVVVQAHPMQPGKNVGKINSYTVDPTSSDFSTPCLMYEKFVNITVKSLYPNPTVQLRKALNTNLDFLFQGVAAGCTQVFPYGRD
As to B1, the “Thermal stability, T50” value in series [1] (culture supernatants, temperature at which the enzyme retains 50% of its activity after 10 minutes of incubation) was found to be 59.7 °C. For the same molecule, in series [1] (versus PaDa-I variant), the “increase in thermostability (T50) with respect to PaDa-I” value came out at 2 °C. In series [2], the pI is recorded as 5.3. Besides, the “Optimum pH for ABTS” value in series [3] is 4.0. Also, the “stability in the presence of acetonitrile” value in series [4] is on record as “higher stability in the presence of acetonitrile”. In addition, the “regioselectivity against 5′-hydroxypropranolol” value in series [5] (0.03 μM enzyme, 4 mM propranolol, 2 mM H2O2) is 99%. Moreover, the “amount of 5′-hydroxypropranolol produced” value in series [5] (compared among AaeUPO, PaDa-I, JaWa, SoLo) is on record as “produce the largest amount of 5′-hydroxypropranolol”. The “TTNs, With ascorbic acid” value in series [6] (4 mM ascorbic acid) is 48,000. For the same molecule, the “TTNs, Without ascorbic acid” value in series [6] (absence of ascorbic acid) was 15,000.
